According to patent US8722622B2, “FGF21 conjugates and anti-diabetic uses thereof” (COVX Technologies Ireland, Limited, priority 2010, dated 2014):

Assays:
[1] = Differential scanning calorimetry (DSC); format: physicochemical; conditions: temperature-induced unfolding
Protocol: Thermal stability of the two candidates was investigated using DSC by measuring midpoint of transition (Tm) of temperature-induced unfolding. The Tm value of the major unfolding transition for h38C2 was 73.5° C.

[2] = Intrinsic tryptophan fluorescence thermal unfolding; format: physicochemical
From the text: Thermal stability of the two candidates was also investigated using intrinsic protein tryptophan fluorescence by measuring midpoint of transition (Tm-FL) of temperature-induced unfolding. This assay monitors changes in tertiary structure semi-quantitatively upon unfolding induced by high temperature.

[3] = system: Glut1 mRNA expression in differentiated 3T3-L1 adipocytes; assay: Glut1 Taqman assay; format: cell-based; conditions: differentiated 3T3-L1 adipocytes, 6 hrs; read-out: EC50 in Glut1 Taqman assay
Protocol: Differentiated 3T3-L1 adipocytes were used to measure the Glut1 mRNA expression by qPCR method. Overnight serum starved day 10-14 differentiated 3T3-L1 adipocytes were treated with compounds for 6 hrs. Total RNA was extracted from these cells, and Glut1 and GAPDH mRNA expression was measured using a Quantitect Probe RT-PCR kit and running a quantitative real time PCR reaction in a Taqman machine (Applied Biosystems®). The bioactivity of the compounds was determined by a fold change in Glut1 mRNA levels normalized by the GAPDH mRNA levels from each sample. EC50 values as measurements of the potency of the compounds were obtained from the dose response curves in the assay.
3T3-L1 adipocytes were seeded at day 8 in 24-well tissue culture plates (Falcon®, Cat#353047), and incubated in DMEM complete medium (10% FBS, 2 mM L-glutamine, 1% P/S) at 37° C., 5% CO2. […] The medium was aspirated, and then RNA extracted from the cells using the RNeasy mini Kit according to the manufacturer's instructions. RNA was measured at A260 nm using the Spectramax® Plus spectrophotometer.

[4] = parameters: species or system Swiss-Webster mice; conditions: mouse, in vivo, sc
Protocol: The PK of FGF21 antibody conjugates were examined in mice after IV or SC administration. […] Antibody conjugates concentrations in serum were determined using an ELISA which captured the FGF21 portion of the antibody conjugates through a monoclonal anti-hFGF21 antibody bound to a 96-well plate. FGF21 antibody conjugates bound to the plate were detected through an anti-hFc monoclonal antibody, and concentrations were determined using a standard curve of the PK dosing solution diluted into serum-containing assay buffer. SC bioavailability was calculated as the ratio of the area-under the curve (AUC) of the SC serum concentration profile divided by the AUC of the IV serum concentration profile.

ob/ob mice = assay: Mouse efficacy in ob/ob mice (OGTT, body weight, liver, gene expression); format: in vivo; conditions: ob/ob mice; for mean glucose AUC % during OGTT: single dose 10 mg/ml as printed (FIG. 6B)
Protocol: The efficacy of FGF21 antibodies conjugates was evaluated in two murine obese insulin resistant models—ob/ob mice and high-fat diet-induced obese mice. For both models, male mice (6-8 weeks of age for ob/ob, 12-14 weeks of age for DIO with high-fat diet initiated at 6 weeks of age) were housed 2-4/cage and FGF21 antibody conjugates were administered by SC injection. Body weight was measured daily in the morning. Glucose tolerance was assessed by oral glucose tolerance test. Briefly, mice were fasted for 4-5 hrs in the morning of the day of testing. A basal blood sample was obtained and blood glucose levels were determined using a portable glucometer. Following basal sample, glucose was administered by oral gavage, and blood samples were drawn from 15 to 120 mins thereafter.
For […] expression, frozen visceral WAT samples collected from the in vivo efficacy studies were homogenized. Total RNA was extracted from the tissue homogenates, and Glut1 and GAPDH mRNA expression was measured using a Quantitect Probe RT-PCR kit and running a quantitative real time PCR reaction in a Taqman machine (Applied Biosystems). The effect of treatment was determined by a fold change in Glut1 mRNA levels normalized by the GAPDH mRNA levels from each sample.

[5] = format: physicochemical
Protocol: FGF21ΔH-D79C mutant protein was produced in E. coli and purified as described above. FGF21ΔH-D79C was expressed from 1 L of culture. A 150 mg inclusion body was obtained and 85 mg purified protein was obtained, representing a 60% yield. To test the stability of FGF21ΔH-D79C as well as FGF21ΔH (SEQ ID NO:2), freshly thawed samples were kept at 4° C. over seven days, and examined for their integrity by RP-HPLC, SEC_HPLC, Ellman assay and SDS-PAGE on day 0, 3 and 7. […] PBS (pH7.4) and 20 mM Tris-HCl 50 mM NaCl (pH7.5) made no significant difference of stability of FGF21ΔH-D79C.
It is possible that the solubility of FGF21ΔH-D79C may be reduced at pH6.0. The stability of FGF21ΔH-D79C was examined upon multiple freeze/thaw cycles. The proteins were repeated to freeze (−80 C) and thaw (4° C.) 9 times.

| Molecule | Tm of the major unfolding transition (DSC) [1] [°C] | Tm-FL of the major unfolding transition [2] | EC50 [3] [nM] | SC bioavailability [4] [%] | body weight gain (ob/ob mice) | glucose tolerance (ob/ob mice) | Mean Glucose AUC (% of vehicle control) during OGTT (ob/ob mice; single SC dose 1 mg/kg (FIGS. 4A, 4B)) | Mean Glucose AUC (% of vehicle control) during OGTT (ob/ob mice; single SC dose 3 mg/kg (FIGS. 4A, 4B)) | Cumulative body weight change, mean body weight (ob/ob mice; single dose 10 mg/kg (FIG. 6A)) [g] | mean glucose AUC % during OGTT (ob/ob mice) [%] | Cumulative body weight change, mean body weight (ob/ob mice; single dose 2 mg/kg (FIG. 6A)) [g] | stability upon freeze/thaw cycles [5] | fraction oxidized at pH 6.0 ([5]; 4° C., three-day incubation) | stability at neutral pH 7.4 ([5]; pH 7.4) |
| --- | --- | --- | --- | --- | --- | --- | --- | --- | --- | --- | --- | --- | --- | --- |
| h38C2: humanized aldolase catalytic antibody h38C2 IgG1, SEQ ID NOS:25 and 26 | 73.5 | approximately 74.1 °C |  |  |  |  |  |  |  |  |  |  |  |  |
| Ab-L1-FGF21ΔH-H125C: FGF21ΔH-H125C combined with L1 at H125C and conjugated with h38C2 (conjugate, listed as Homo sapiens, conjugated via L1 linker to h38C2 antibody) PIPDSSPLLQFGGQVRQRYLYTDDAQQTEAHLEIREDGTVGGAADQSPESLLQLKALKPGVIQILGVKTSRFLCQRPDGALYGSLHFDPEACSFRELLLEDGYNVYQSEAHGLPLHLPGNKSPHRDPCPRGPARFLPLPGLPPALPEPPGILAPQPPDVGSSDPLSMVGPSQGRSPSYAS | 79 | ~79.7 °C | 3.2 | 67 | reduce body weight gain | improve glucose tolerance | 87 % of vehicle control | 66 % of vehicle control | 0.8 | 51 |  |  |  |  |
| FGF21ΔH-D79C: FGF21 cysteine mutant, SEQ ID NO:13 (protein, listed as Homo sapiens) PIPDSSPLLQFGGQVRQRYLYTDDAQQTEAHLEIREDGTVGGAADQSPESLLQLKALKPGVIQILGVKTSRFLCQRPCGALYGSLHFDPEACSFRELLLEDGYNVYQSEAHGLPLHLPGNKSPHRDPAPRGPARFLPLPGLPPALPEPPGILAPQPPDVGSSDPLSMVGPSQGRSPSYAS |  |  | 2.1 |  |  |  |  |  |  | 54 | 2.1 | Neither sample showed any difference | more than half | stable |
